Results as given in publication PMC10514044, “Structural basis of the activation of TRPV5 channels by long-chain acyl-Coenzyme-A” (Nature Communications, 2023).

Molecular target: the molecule itself
Assay: cryo-EM structure; TRPV5 in lipid nanodiscs (MSP2N2, soy polar lipids), incubated with 400 uM oleoyl-CoA or 400 uM diC8-PI(4,5)P2 for 45 min; 20 mM HEPES pH 8.0, 150 mM NaCl, 2 mM TCEP; C4 symmetry imposed

B1: full-length rabbit TRPV5 (natural protein, UniProt Q9XSM3 1-730, looked up)
chain: MGACPPKAKGPWAQLQKLLISWPVGEQDWEQYRDRVNMLQQERIRDSPLLQAAKENDLRLLKILLLNQSCDFQQRGAVGETALHVAALYDNLEAATLLMEAAPELAKEPALCEPFVGQTALHIAVMNQNLNLVRALLARGASVSARATGAAFRRSPHNLIYYGEHPLSFAACVGSEEIVRLLIEHGADIRAQDSLGNTVLHILILQPNKTFACQMYNLLLSYDEHSDHLQSLELVPNHQGLTPFKLAGVEGNTVMFQHLMQKRKHVQWTCGPLTSTLYDLTEIDSWGEELSFLELVVSSKKREARQILEQTPVKELVSFKWKKYGRPYFCVLASLYILYMICFTTCCIYRPLKLRDDNRTDPRDITILQQKLLQEAYVTHQDNIRLVGELVTVTGAVIILLLEIPDIFRVGASRYFGQTILGGPFHVIIITYASLVLLTMVMRLTNMNGEVVPLSFALVLGWCSVMYFARGFQMLGPFTIMIQKMIFGDLMRFCWLMAVVILGFASAFHITFQTEDPNNLGEFSDYPTALFSTFELFLTIIDGPANYSVDLPFMYCITYAAFAIIATLLMLNLFIAMMGDTHWRVAQERDELWRAQVVATTVMLERKMPRFLWPRSGICGYEYGLGDRWFLRVENHHDQNPLRVLRYVEAFKCSDKEDGQEQLSEKRPSTVESGMLSRASVAFQTPSLSRTTSQSSNSHRGWEILRRNTLGHLNLGLDLGEGDGEEVYHF
notes: TRPV5, rabbit, full length, in a YepM vector; also called Transient receptor potential vanilloid 5; TRPV5_(CoA Open)
- binding result: binds
